Measured values reported in patent US20230203108.

T1: Recombinant Human Serpin B9/SERPINB9 (C-6His) (Novoprotein, CJ32), P50453
T1 chain: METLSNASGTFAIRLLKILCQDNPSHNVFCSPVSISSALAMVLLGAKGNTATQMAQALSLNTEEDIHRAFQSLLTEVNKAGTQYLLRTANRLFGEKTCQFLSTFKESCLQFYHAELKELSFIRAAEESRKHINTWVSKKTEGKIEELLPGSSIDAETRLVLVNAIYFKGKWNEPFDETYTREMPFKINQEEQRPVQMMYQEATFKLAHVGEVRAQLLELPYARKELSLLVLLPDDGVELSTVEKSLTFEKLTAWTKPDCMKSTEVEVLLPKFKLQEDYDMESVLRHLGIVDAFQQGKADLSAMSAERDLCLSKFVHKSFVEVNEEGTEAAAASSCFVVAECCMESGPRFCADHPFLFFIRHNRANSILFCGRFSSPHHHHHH

B1: granzyme B variant K44F, L46E, K155P, K172L, S175I, K200R (protein)
chain: IIGGHEAKPHSRPYMAYLMIWDQFSEKRCGGFLIRDDFVLTAAHCWGSSINVTLGAHNIKEQEPTQQFIPVKRPIPHPAYNPKNFSNDIMLLQLERKAKRTRAVQPLRLPSNKAQVKPGQTCSVAGWGQTAPLGPHSHTLQEVKMTVQEDRLCEIDLRHYYDSTIELCVGDPEIKKTSFRGDSGGPLVCNKVAQGIVSYGRNNGMPPRACTKVSSFVHWIKKTMKRY
B2: granzyme B variant K44L, R48E, K155P, K172L, S175I, K200R (protein)
chain: IIGGHEAKPHSRPYMAYLMIWDQLSLKECGGFLIRDDFVLTAAHCWGSSINVTLGAHNIKEQEPTQQFIPVKRPIPHPAYNPKNFSNDIMLLQLERKAKRTRAVQPLRLPSNKAQVKPGQTCSVAGWGQTAPLGPHSHTLQEVKMTVQEDRLCEIDLRHYYDSTIELCVGDPEIKKTSFRGDSGGPLVCNKVAQGIVSYGRNNGMPPRACTKVSSFVHWIKKTMKRY
B3: granzyme B variant K44L, L46E, K155P, K172L, S175I, K200R (protein)
chain: IIGGHEAKPHSRPYMAYLMIWDQLSEKRCGGFLIRDDFVLTAAHCWGSSINVTLGAHNIKEQEPTQQFIPVKRPIPHPAYNPKNFSNDIMLLQLERKAKRTRAVQPLRLPSNKAQVKPGQTCSVAGWGQTAPLGPHSHTLQEVKMTVQEDRLCEIDLRHYYDSTIELCVGDPEIKKTSFRGDSGGPLVCNKVAQGIVSYGRNNGMPPRACTKVSSFVHWIKKTMKRY
B4: granzyme B variant K44L, L46I, K155P, K172L, S175I, K200R (protein)
chain: IIGGHEAKPHSRPYMAYLMIWDQLSIKRCGGFLIRDDFVLTAAHCWGSSINVTLGAHNIKEQEPTQQFIPVKRPIPHPAYNPKNFSNDIMLLQLERKAKRTRAVQPLRLPSNKAQVKPGQTCSVAGWGQTAPLGPHSHTLQEVKMTVQEDRLCEIDLRHYYDSTIELCVGDPEIKKTSFRGDSGGPLVCNKVAQGIVSYGRNNGMPPRACTKVSSFVHWIKKTMKRY
B5: granzyme B variant K44F, L46I, K155P, K172L, S175I, K200R (protein)
chain: IIGGHEAKPHSRPYMAYLMIWDQFSIKRCGGFLIRDDFVLTAAHCWGSSINVTLGAHNIKEQEPTQQFIPVKRPIPHPAYNPKNFSNDIMLLQLERKAKRTRAVQPLRLPSNKAQVKPGQTCSVAGWGQTAPLGPHSHTLQEVKMTVQEDRLCEIDLRHYYDSTIELCVGDPEIKKTSFRGDSGGPLVCNKVAQGIVSYGRNNGMPPRACTKVSSFVHWIKKTMKRY
B6: granzyme B variant K44L, L46F, K155P, K172L, S175I, K200R (protein)
chain: IIGGHEAKPHSRPYMAYLMIWDQLSFKRCGGFLIRDDFVLTAAHCWGSSINVTLGAHNIKEQEPTQQFIPVKRPIPHPAYNPKNFSNDIMLLQLERKAKRTRAVQPLRLPSNKAQVKPGQTCSVAGWGQTAPLGPHSHTLQEVKMTVQEDRLCEIDLRHYYDSTIELCVGDPEIKKTSFRGDSGGPLVCNKVAQGIVSYGRNNGMPPRACTKVSSFVHWIKKTMKRY
B7: granzyme B variant K44F, L46F, K155P, K172L, S175I, K200R (protein)
chain: IIGGHEAKPHSRPYMAYLMIWDQFSFKRCGGFLIRDDFVLTAAHCWGSSINVTLGAHNIKEQEPTQQFIPVKRPIPHPAYNPKNFSNDIMLLQLERKAKRTRAVQPLRLPSNKAQVKPGQTCSVAGWGQTAPLGPHSHTLQEVKMTVQEDRLCEIDLRHYYDSTIELCVGDPEIKKTSFRGDSGGPLVCNKVAQGIVSYGRNNGMPPRACTKVSSFVHWIKKTMKRY
B8: granzyme B variant K44L, R48K, K155P, K172L, S175I, K200R (protein)
chain: IIGGHEAKPHSRPYMAYLMIWDQLSLKKCGGFLIRDDFVLTAAHCWGSSINVTLGAHNIKEQEPTQQFIPVKRPIPHPAYNPKNFSNDIMLLQLERKAKRTRAVQPLRLPSNKAQVKPGQTCSVAGWGQTAPLGPHSHTLQEVKMTVQEDRLCEIDLRHYYDSTIELCVGDPEIKKTSFRGDSGGPLVCNKVAQGIVSYGRNNGMPPRACTKVSSFVHWIKKTMKRY
B9: granzyme B variant K44F, R48K, K155P, K172L, S175I, K200R (protein)
chain: IIGGHEAKPHSRPYMAYLMIWDQFSLKKCGGFLIRDDFVLTAAHCWGSSINVTLGAHNIKEQEPTQQFIPVKRPIPHPAYNPKNFSNDIMLLQLERKAKRTRAVQPLRLPSNKAQVKPGQTCSVAGWGQTAPLGPHSHTLQEVKMTVQEDRLCEIDLRHYYDSTIELCVGDPEIKKTSFRGDSGGPLVCNKVAQGIVSYGRNNGMPPRACTKVSSFVHWIKKTMKRY
B10: granzyme B variant K44F, L46Q, K155P, K172L, S175I, K200R (protein)
chain: IIGGHEAKPHSRPYMAYLMIWDQFSQKRCGGFLIRDDFVLTAAHCWGSSINVTLGAHNIKEQEPTQQFIPVKRPIPHPAYNPKNFSNDIMLLQLERKAKRTRAVQPLRLPSNKAQVKPGQTCSVAGWGQTAPLGPHSHTLQEVKMTVQEDRLCEIDLRHYYDSTIELCVGDPEIKKTSFRGDSGGPLVCNKVAQGIVSYGRNNGMPPRACTKVSSFVHWIKKTMKRY
B11: granzyme B variant K44F, R48E, K155P, K172L, S175I, K200R (protein)
chain: IIGGHEAKPHSRPYMAYLMIWDQFSLKECGGFLIRDDFVLTAAHCWGSSINVTLGAHNIKEQEPTQQFIPVKRPIPHPAYNPKNFSNDIMLLQLERKAKRTRAVQPLRLPSNKAQVKPGQTCSVAGWGQTAPLGPHSHTLQEVKMTVQEDRLCEIDLRHYYDSTIELCVGDPEIKKTSFRGDSGGPLVCNKVAQGIVSYGRNNGMPPRACTKVSSFVHWIKKTMKRY
B12: granzyme B variant K44L, L46Q, K155P, K172L, S175I, K200R (protein)
chain: IIGGHEAKPHSRPYMAYLMIWDQLSQKRCGGFLIRDDFVLTAAHCWGSSINVTLGAHNIKEQEPTQQFIPVKRPIPHPAYNPKNFSNDIMLLQLERKAKRTRAVQPLRLPSNKAQVKPGQTCSVAGWGQTAPLGPHSHTLQEVKMTVQEDRLCEIDLRHYYDSTIELCVGDPEIKKTSFRGDSGGPLVCNKVAQGIVSYGRNNGMPPRACTKVSSFVHWIKKTMKRY

Target: T1, Recombinant Human Serpin B9/SERPINB9 …

Row | Protein | protease activity (cleavage of Ac-IEPD-pNA, absorbance at 405 nm) after 1 h at 37 C with 0.5 uM PI-9, relative to wild-type granzyme B
1 | B1 | the variants maintained high protease activity even in the presence of inhibitors
2 | B2 | the variants maintained high protease activity even in the presence of inhibitors
3 | B3 | the variants maintained high protease activity even in the presence of inhibitors
4 | B4 | the variants maintained high protease activity even in the presence of inhibitors
5 | B5 | the variants maintained high protease activity even in the presence of inhibitors
6 | B6 | the variants maintained high protease activity even in the presence of inhibitors
7 | B7 | the variants maintained high protease activity even in the presence of inhibitors
8 | B8 | the variants maintained high protease activity even in the presence of inhibitors
9 | B9 | the variants maintained high protease activity even in the presence of inhibitors
10 | B10 | the variants maintained high protease activity even in the presence of inhibitors
11 | B11 | the variants maintained high protease activity even in the presence of inhibitors
12 | B12 | the variants maintained high protease activity even in the presence of inhibitors
